Columns and labels:
SARS-CoV-2 S2 protein [1] = molecular target: SARS-CoV-2 S2 protein (SARS-CoV-2 (WT), UniProt P0DTC2 686-1213); assay: streptavidin bead fluorescence binding; settings: protein: commercial, tags: His
[2] = molecular target: SARS-CoV-2 spike protein WT (SARS-CoV-2 (WT), UniProt P0DTC2 14-1213); assay: streptavidin bead fluorescence binding; settings: protein: commercial, tags: His, chain copies: 3
SARS-CoV-1 spike protein = SARS-CoV-1 spike protein (SARS-CoV-1, UniProt P59594 14-1195)
SARS-CoV-2 S1 protein = SARS-CoV-2 S1 protein (SARS-CoV-2, UniProt P0DTC2 14-685)
PD-L1 = PD-L1 (UniProt Q9NZQ7 19-238); assay: AuNP colorimetric assay; 1.5 M NaCl, 250 nM each; SELEX buffer: PBS, 1 mM MgCl2, 0.01% Tween, pH 7.4, room temperature; settings: protein: commercial; hairpin
Sequence of PD-L1 (Q9NZQ7 19-238): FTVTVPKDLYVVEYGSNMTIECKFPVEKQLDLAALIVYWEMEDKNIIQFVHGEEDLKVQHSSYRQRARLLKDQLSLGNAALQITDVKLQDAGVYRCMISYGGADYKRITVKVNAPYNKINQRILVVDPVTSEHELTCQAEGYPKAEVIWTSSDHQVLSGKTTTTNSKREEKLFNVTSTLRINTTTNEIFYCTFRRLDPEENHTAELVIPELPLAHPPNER

SARS-CoV-2 S2 protein [3] = molecular target: SARS-CoV-2 S2 protein (SARS-CoV-2 (WT), UniProt P0DTC2 686-1213); assay: streptavidin bead fluorescence binding; settings: protein: commercial; tags: His

B1: S2A2 (ssDNA)
DNA: CAAGGAGCGACCAGAGGCGGGTTCCTAGACTTGTACTCAGCCTTTACAGCTATGCCCTGGCATCCTTCAGCCC
Work on B1 yielded a Kd (SARS-CoV-2 S2 protein [1]; label: 6-FAM) of 44.2 ± 6.6 nM.

CGCAGCACCCAAGAACAAGGACTGCTTAGGATTGCGATAGGTTCGG (ssDNA) [S1B6C3] was tested, and the Kd [2] was 56.4 ± 14.2 nM.

CAAGGAGCGACCAGAGGCGGGTTCCTAGACTTGTACTCAGCCT (ssDNA) [S2A2C3]: binds (SARS-CoV-2 S2 protein [1]; label: 6-FAM).

With AGGCGGGTTCCTAGACTTGTACTCAGCCT (ssDNA) [S2A2C1] the binding result (SARS-CoV-1 spike protein) was “binds”, the binding result (SARS-CoV-2 S1 protein) was “no binding” and the Kd ([2]; hairpin) was 83.4 ± 8 nM. The Kd (SARS-CoV-2 S2 protein [1]; hairpin) was 35 ± 4.3 nM and the binding result (PD-L1) was “no binding”.

B2: S2A1 (ssDNA)
DNA: CAAGGAGCGACCAGAGGGGCGGTTTATCAACAACTCGCTCTGTACACCACTCTTTGTTGGCATCCTTCAGCCC
Binder B2 has a Kd (SARS-CoV-2 S2 protein [3]) of 49.7 ± 3.2 nM.

B3: S2A1C1 (ssDNA)
DNA: CAAGGAGCGACCAGAGGGGCGGTTTATCAACAACTCGCTCTGTACACCACTCTTTG
B3: binds (SARS-CoV-2 S2 protein [3]).
